In patent US20240294650A1 (Alector, published 2024):
Residue numbers refer to the chain shown, from its start.

T1: Full Axl (ECD domain of human Axl) (human, UniProt P30530 26-451)
T1 construct: also called human Axl ECD
T1 sequence: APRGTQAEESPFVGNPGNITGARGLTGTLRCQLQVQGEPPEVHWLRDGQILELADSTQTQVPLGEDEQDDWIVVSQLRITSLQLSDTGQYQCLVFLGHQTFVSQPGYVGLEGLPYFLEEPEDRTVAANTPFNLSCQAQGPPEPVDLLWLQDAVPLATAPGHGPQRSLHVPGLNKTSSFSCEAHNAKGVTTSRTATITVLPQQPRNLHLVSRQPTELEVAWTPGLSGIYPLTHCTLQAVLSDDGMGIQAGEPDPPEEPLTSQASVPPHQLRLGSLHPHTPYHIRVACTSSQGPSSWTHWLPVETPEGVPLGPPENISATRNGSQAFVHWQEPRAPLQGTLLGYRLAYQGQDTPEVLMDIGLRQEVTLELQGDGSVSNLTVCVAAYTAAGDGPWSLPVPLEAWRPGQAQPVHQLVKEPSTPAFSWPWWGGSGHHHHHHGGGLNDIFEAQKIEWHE

T2: Recombinant human MerTK-human Fc Chimera protein (human, UniProt Q12866 26-499, limits assumed)
T2 construct: bought construct; also called MerTK-Fc (R&D systems, Cat #391-MR-100)
T2 sequence: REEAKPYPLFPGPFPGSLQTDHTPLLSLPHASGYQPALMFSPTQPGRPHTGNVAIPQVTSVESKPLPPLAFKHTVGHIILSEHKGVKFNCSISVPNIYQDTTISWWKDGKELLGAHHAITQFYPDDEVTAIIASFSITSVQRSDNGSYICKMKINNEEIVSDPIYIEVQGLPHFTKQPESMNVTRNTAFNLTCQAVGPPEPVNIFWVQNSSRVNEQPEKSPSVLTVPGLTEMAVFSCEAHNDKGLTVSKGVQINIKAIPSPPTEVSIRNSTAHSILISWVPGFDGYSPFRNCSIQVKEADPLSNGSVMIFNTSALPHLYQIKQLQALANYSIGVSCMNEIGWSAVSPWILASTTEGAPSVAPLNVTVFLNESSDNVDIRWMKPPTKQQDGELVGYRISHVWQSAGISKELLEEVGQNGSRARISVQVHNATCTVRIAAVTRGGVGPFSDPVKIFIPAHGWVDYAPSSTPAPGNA

T3: human MerTK (human, UniProt Q12866 21-999)
T3 sequence: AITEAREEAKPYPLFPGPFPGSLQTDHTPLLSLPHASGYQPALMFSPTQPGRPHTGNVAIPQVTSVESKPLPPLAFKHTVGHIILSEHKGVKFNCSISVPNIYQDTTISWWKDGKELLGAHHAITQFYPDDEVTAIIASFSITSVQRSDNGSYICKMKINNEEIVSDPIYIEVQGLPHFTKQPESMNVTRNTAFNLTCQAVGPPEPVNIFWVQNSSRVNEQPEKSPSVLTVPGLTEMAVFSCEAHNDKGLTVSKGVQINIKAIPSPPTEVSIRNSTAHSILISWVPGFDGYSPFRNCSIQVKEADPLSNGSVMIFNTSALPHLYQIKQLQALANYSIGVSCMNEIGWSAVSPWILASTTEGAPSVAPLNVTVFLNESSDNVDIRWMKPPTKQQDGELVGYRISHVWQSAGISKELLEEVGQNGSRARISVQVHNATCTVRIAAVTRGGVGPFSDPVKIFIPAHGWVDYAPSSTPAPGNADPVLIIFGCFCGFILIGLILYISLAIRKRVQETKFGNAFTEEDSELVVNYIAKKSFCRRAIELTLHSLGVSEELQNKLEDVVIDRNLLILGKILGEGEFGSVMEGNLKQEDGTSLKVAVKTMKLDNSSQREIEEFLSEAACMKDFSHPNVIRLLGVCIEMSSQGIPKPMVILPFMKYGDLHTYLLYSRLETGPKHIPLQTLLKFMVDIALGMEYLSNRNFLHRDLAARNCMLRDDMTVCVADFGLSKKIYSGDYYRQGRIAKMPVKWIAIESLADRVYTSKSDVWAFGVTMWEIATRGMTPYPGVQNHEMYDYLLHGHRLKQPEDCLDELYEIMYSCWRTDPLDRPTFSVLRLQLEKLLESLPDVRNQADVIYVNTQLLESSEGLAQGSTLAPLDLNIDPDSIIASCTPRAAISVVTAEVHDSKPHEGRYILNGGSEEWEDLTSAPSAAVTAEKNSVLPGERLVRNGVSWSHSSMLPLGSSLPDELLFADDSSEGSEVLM

B1: MTK-210 (antibody, human IgG1, V domains shown)
VH: QVQLQQSGPELVKPGASVKISCKASDYEFSRSWMNWVKQRPGKGLEWIGRIYPGDGDTNYNGKFKGKATLTADKSSNTAYMQLNSLTSEDSAVYFCARKGGYYYSISNYFDYWGQGTTLTVSS
VL: QIVLTQSPAIMSASPGVKVTMTCSASSSVSYMHWYQQKPGSSPRLLIYDTSNLASGVPVRFSGSGSGTSYSLTISRMEAEDAATYYCQQWSSYPPYTFGGGTKLEIK
B2: MTK-220 (antibody, V domains shown)
VH: EVQLVESGGGLVKPGGSLKLSCAASGFTFSDYGMHWVRQAPEKGLEWVAFISGGSGTIYYEDTVKGRFTISRDNAKNTLFLQMTSLRSEDTAMYYCTRGGNYFDYWGQGTTLTVSS
VL: NIMLTQSPSSLAVSAGEKVTMTCKSSQSVLYSSNQKNYLAWYQQKPGQSPKLLIYWASTRESGVPDRFTGSGSGTDFTLTISNVQAEDLAVYYCHQYFSSWTFGGGTKLEIK
B3: MTK-213 (antibody, human IgG1, V domains shown)
VH: QVQLQQPGAELVKPGASVKMSCKASGYTFTSYWITWVKQRPGQGHEWIGEIYPGIGSTNYNEKFKSKATLTVDTSSRTAYMQLSSLTSEDSAVYFCARGAYTKYYFDYWGQGTTLTVSS
VL: DIVMTQSHKFMSTSVGDRVSITCKASQDVGDAVAWYQQKPGQTPKLLIYWASTRHTGVPDRFTGSGSGTDFTLTISNVQSEDLADYFCQQYSSYLMYTFGGGTKLEIK
B4: MTK-223 (antibody, human IgG1, V domains shown)
VH: DVQLQESGPGLVKPSQSLSLTCSVTGYSITSGYYWNWIRQFPGNKLEWMGYISYDGTNNYNPSLKNRISITRDTSENQFFLKLNSVTTEDTATYFCVRGAGYWGQGTTLTVSS
VL: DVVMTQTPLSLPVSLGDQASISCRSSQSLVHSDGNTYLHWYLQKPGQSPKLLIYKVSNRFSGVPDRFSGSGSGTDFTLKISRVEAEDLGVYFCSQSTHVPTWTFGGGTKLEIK
B5: MTK-219 (antibody, human IgG1, V domains shown)
VH: QVQLQQSGADLMKPGASVKLSCKATGNTFTGYWIEWVKQRPGHGLEWIGEILTGSGSTNYNERFKGKATFTADTSSNTAYMQLSSLTTEDSAIYYCAGSYFTNSWFPYWGQGSLVTVSA
VL: DIVLTQSPASLAVSLGQRATISCRASESVDSYGNSFMHWYQQKPGQPPKLLIYRAYTLESGIPARFSGSGSRTDFTLTINPVEADDVATYYCQQSNEDPRTFGGGTKLEIK
B6: MTK-222 (antibody, human IgG1, V domains shown)
VH: B5 VH with N27Y, T58S, R63K, T74S, Y80F, F101Y, T102S
VL: B5 VL with A9V, N34S, Y56S, T57S, A84T
B7: MTK-228 (antibody, human IgG1, V domains shown)
VH: QDQLQQSGPELVKPGASVKISCKASGYSFTSYYIHWVKQRPGQGLEWVGWIFPGNGNTKYNERFKGKATLTADTSSSTAYMQLSSLTSEDSAVYYCARLGLIYALDYWGQGTSVTVSS
VL: DAVMTQTPLSLPVSLGDQASISCRSSQSLENSNGNTYLHWYLQKPGQSPQLLIYRVSNRFSGVLDRFSGSGSGTDFTLKISRVEAEDLGVYFCLQVTHVPFTFGSGTKLEIK
B8: MTK-226 (antibody, human IgG1, V domains shown)
VH: B7 VH with D2V, V48I, R63N, K65R
VL: B7 VL with N31S, K79Q
B9: MTK-218 (antibody, human IgG1, V domains shown)
VH: B7 VH with D2V, A16T, E46D, V48I, G56R, K59Q, R63K
VL: B7 VL with N35H, L64Q
B10: MTK-227 (antibody, human IgG1, V domains shown)
VH: EVKLVESGGGLVQPGGSLSLSCAASGFTFTDNYMTWVRQPPGKALEWLGFSRNKANGYTTEYSASVKGRFTISRDSSQSILYLQMNALRAEDSGTYYCARFPPHYYAGGYFDVWGTGTTVTVSS
VL: DIQMTQSPASLSASVGETVTITCRASENIYSYLAWYQQKQGKSPQLLVYNAKTLAEGVPSRFSGSGSGTQFSLKINSLQPADFGSYYCQHYYRTPPTFGGGTKLEIK
B11: MTK-229 (antibody, human IgG1, V domains shown)
VH: QVQLQQSGPELVKPGASVKISCKASGYEFSRSWMNWVKQRPGKGLEWIGRIYPGDGDTNYKGKLKGQATLTADKSSSTAYMQLSSLTFEDSAVYFCARGGGYYYDSRYEGFVYWGQGTVVTVSA
VL: QIVLTQSPAIMSASPGEEVTMTCSASSSVSYMHWYQQKSGTSPKRWIYDTSKLASGVSGRFSGSGSGTSYSLTISSMEAEDAATYYCQQWSSNPPITFGAGTKLELK

biological target: T1, Full Axl (ECD domain of human Axl); experiment: SPR (data not shown)
Procedure: Binding of anti-MerTK antibodies of the present disclosure to these domain-swapped chimera or deletion mutants was tested by Surface Plasmon Resonance (SPR) using Carterra LSA. Purified anti-MerTK antibodies were immobilized in duplicate on a HC30M chip (Carterra) by amine coupling, following the manufacturer's instructions (described previously).
Supernatants containing the constructs were diluted 1:1 with running buffer containing 0.5 mg/mL BSA (HBS-TE, Carterra; BSA, Sigma) and injected over the immobilized antibodies. The surface was regenerated with 10 mM Glycine pH2.0 after each construct injection. Sensorgrams were analyzed using Carterra Epitope software to identify patterns of construct binding. Loss of binding to MerTK constructs with domains deleted or swapped in from Axl and/or gain of binding to Axl constructs with MerTK domains swapped in were evaluated. Data from these studies were used to construct a domain binding map for anti-MerTK antibodies and their binding to various domains of human MerTK.

B1: no binding.
B2: no binding.
B3: no binding.
B4: no binding.
B5: no binding.
B6: no binding.
B7: no binding.
B8: no binding.
B9: no binding.
B10: no binding.
B11: no binding.

biological target: T2, Recombinant human MerTK-human Fc …; experiment: blocking ELISA, ProS-His on MerTK-Fc, Ab 66.6 nM, isotype=100%
Procedure: Briefly, rabbit anti-human IgG antibody (Jackson ImmunoResearch, Cat #309-005-008) was coated at 2 μg/ml onto high-protein binding plates at 4° C. overnight. After washing with 0.05% Tween20 in PBS three times, 5% BSA in PBS was added for 1 hour. Recombinant human MerTK-human Fe Chimera protein (R&D systems, Cat #391-MR-100) was added at 2 μg/ml for 1 hour and plates were washed before the addition of 40 μl of anti-MerTK hybridoma supernatants and 40 μl of His tag-conjugated recombinant Gas6 (R&D systems, Cat #885-GSB-050) at 3 μg/ml or His tag-conjugated recombinant ProS (R&D systems, Cat #9489-PS-100) at 20 μg/ml. After a further incubation for 1 hour, plates were washed and incubated for 1 hour with HRP-conjugated anti-6×His tagged antibody (Abcam, Cambridge, MA, Cat #ab1187). Plates were then washed and an HRP substrate, TMB, was added to develop the plates. The reaction was stopped by adding 50 μl 2N H₂SO₄ and the OD was measured using a spectrophotometer (BioTek).
Anti-MerTK antibodies were titrated to a final concentration from 66.6 nM to 4 pM and tested against anti-human MerTK antibody M6 (disclosed in WO2016/106221) or isotype control antibody.

First: B1
Second: B2
The “Percent ProS ligand binding” value of the first is higher: 116% for the first, 63.4% for the second.

Going from B3 to B4, the “Percent ProS ligand binding” value falls from 43.2% to 37.4%.

First: B5
Second: B6
The “Percent ProS ligand binding” value of the first is higher: 100% for the first, 88.2% for the second.

First: B7
Second: B8
The “Percent ProS ligand binding” value of the first is higher: 216% for the first, 175% for the second.

Going from B9 to B10, the “Percent ProS ligand binding” value falls from 179% to 84.5%.

B11 was tested, and the “Percent ProS ligand binding” value was 117%.

biological target: T3, human MerTK; experiment: cell-based or functional assay

Compared with B1, B7 is lower in “EC50 (nM), pAKT in SK-MEL-5 cells” value: 15 nM for the first, 0.53 nM for the second.

First: B8
Second: B10
The “EC50 (nM), pAKT in SK-MEL-5 cells” value of the first is lower: 0.53 nM for the first, 1.89 nM for the second.

B11 was tested, and the “EC50 (nM), pAKT in SK-MEL-5 cells” value was 1.89 nM.

First: B1
Second: B2
The “Fold increase in PAKT over IgG control” value of the first is lower: 3.3 fold for the first, 3.6 fold for the second.

Going from B3 to B4, the “Fold increase in PAKT over IgG control” value rises from 3.7 fold to 4.1 fold.

Compared with B5, B6 is higher in “Fold increase in PAKT over IgG control” value: 3.5 fold for the first, 4.6 fold for the second.

B7 and B8 are the same in “Fold increase in PAKT over IgG control” value: 4.2 fold for the first, 4.2 fold for the second.

First: B9
Second: B10
The “Fold increase in PAKT over IgG control” value of the first is lower: 4.5 fold for the first, 4.7 fold for the second.

B11 was tested, and the “Fold increase in PAKT over IgG control” value was 4.1 fold.
